One assay has as its system KLL-tetramer. Description: KLL-tetramer staining of MCC1-transduced T cells after expansion. Particulars: CD8+ and CD4+ T cells transduced with codon-optimized TCR, expanded in culture for two weeks. The class given is binding.
Assay [1] deals with HLA-A*02:01 fibroblast cell lines transduced with MCPyV LT antigen. Description: 4 hour chromium release assay, LT antigen transduced targets. The class given is cell-based. The conditions noted are these: transduced CD8+ T cells.
Assay [2] has as its system peptide loaded HLA-A*02:01 K562 cells. Description: Effector cytokine secretion (IFNγ, IL-2, TNF) of transduced T cells. The class given is cell-based. From the text:
(A) CD8 T cells were successfully transduced with codon-optimized MCC-specific TCR (MCC1).
The polynucleotide of one of the patient-derived class I high avidity TCR clones (MCC1) was codon optimized and transduced into CD8+ T and examined for their ability to activate […].

For assay [3] the test system is unchanged. Description: 4 hour chromium release assay, peptide loaded targets. The class given is cell-based. Particulars: transduced CD8+ T cells.
For assay [4] the test system is unchanged. Description: Proliferation of transduced T cells over 72 hours. The class given is cell-based. The conditions noted are these: transduced CD8+ T cells.

From patent US11534461B2, “High affinity merkel cell polyomavirus T antigen-specific TCRS and uses thereof” (priority 2016, dated 2022) come the findings set out here.

B1: MCC1: patient-derived class I high avidity MCPyV T antigen KLL-specific TCR, codon optimized and transduced into T cells (protein)
alpha: RKEVEQDPGPFNVPEGATVAFNCTYSNSASQSFFWYRQDCRKEPKLLMSVYSSGNEDGRFTAQLNRASQYISLLIRDSKLSDSATYLCVVATYSGGGADGLTFGKGTHLIIQPDIQNPDPAVYQLRDSKSSDKSVCLFTDFDSQTNVSQSKDSDVYITDKCVLDMRSMDFKSNSAVAWSNKSDFACANAFNNSIIPEDTFFPSPESSCDVKLVEKSFETDTNLNFQNLSVIGFRILLLKVAGFNLLMTLRLWSS
beta: DAGITQSPRYKITETGRQVTLMCHQTWSHSYMFWYRQDLGHGLRLIYYSAAADITDKGEVPDGYVVSRSKTENFPLTLESATRSQTSVYFCASSSGNPSTDTQYFGPGTRLTVLDLKNVFPPEVAVFEPSEAEISHTQKATLVCLATGFYPDHVELSWWVNGKEVHSGVCTDPQPLKEQPALNDSRYCLSSRLRVSATFWQNPRNHFRCQVQFYGLSENDEWTQDRAKPVTQIVSAEAWGRADCGFTSESYQQGVLSATILYEILLGKATLYAVLVSALVLMAMVKRKDSRG
B1: the “tetramer positivity after expansion” value in the assay on KLL-tetramer is given as “remained tetramer positive”. In addition, in assay [1], the “specific killing of MCPyV LT antigen transduced targets” value is recorded as “specifically killed”. The “maximum percentage of transduced cells that secrete IFNγ, IL-2 and TNF” value in assay [2] (saturating levels of peptide (5 μg/mL), CD4+ versus CD8+ T cells) is “similar”. Moreover, the “sensitivity to engage cytokine secretion” value in assay [2] (transduced CD4+ T cells) is recorded as “reduced sensitivity”. For the same molecule, the effector cytokine production result in assay [2] (transduced CD8+ T cells) is given as “make effector cytokines”. Further, the “specific killing of peptide loaded targets” value in assay [3] is recorded as “specifically killed”. Further, in assay [4], the proliferation result is given as “readily proliferate”.
